Data on 16 molecules can be found in patent US20240392002A1 (EXELIXIS, published 2024).

Test [1] has as its target T1, extracellular domain of human ROR1 (human, UniProt Q01973 30-406).
T1 construct: bought protein; biotinylated in the bivalent assay format; also called Acro Cat. No. RO1-H522y
Put plainly: BLI, IgG1 on biosensor, soluble ROR ectodomain. An excerpt:
(§1) To measure binding affinity in ROR binder discovery campaigns, the VL and VH domains identified in the phage screen described above were formatted into a bivalent monospecific native human full-length IgG1 architecture and immobilized to a biosensor on an Octet (Pall ForteBio) biolayer interferometer. Soluble ROR antigens, including the extracellular domains of ROR1 (Acro Cat. No. RO1-H522γ) and ROR2 (Acro Cat. No. R02-H52E5), as well as the individual ROR1 Frizzled (Acro Cat. No. RO1-H5222), Ig-like (Acro Cat. No. RO1-H5221), and Kringle (Acro Cat. No. RO1-H5223) domains, were then added to the system and binding measured.
(§2) ROR binding candidates, formatted in the bivalent monospecific native human full-length IgG1 architecture, were further characterized for binding to ROR1 and/or ROR2. […] ROR binding candidates were also characterized for their binding to specific ROR1 domains.
A general note: In BLI a coated tip is dipped into the sample, and binding shifts an interference pattern.

For test [2], the target named is T2, extracellular domain of human ROR2 (human, UniProt Q01974 34-403).
T2 construct: bought protein; biotinylated in the bivalent assay format; also called Acro Cat. No. RO2-H52E5
T2 sequence (Q01974 34-403 limits assumed): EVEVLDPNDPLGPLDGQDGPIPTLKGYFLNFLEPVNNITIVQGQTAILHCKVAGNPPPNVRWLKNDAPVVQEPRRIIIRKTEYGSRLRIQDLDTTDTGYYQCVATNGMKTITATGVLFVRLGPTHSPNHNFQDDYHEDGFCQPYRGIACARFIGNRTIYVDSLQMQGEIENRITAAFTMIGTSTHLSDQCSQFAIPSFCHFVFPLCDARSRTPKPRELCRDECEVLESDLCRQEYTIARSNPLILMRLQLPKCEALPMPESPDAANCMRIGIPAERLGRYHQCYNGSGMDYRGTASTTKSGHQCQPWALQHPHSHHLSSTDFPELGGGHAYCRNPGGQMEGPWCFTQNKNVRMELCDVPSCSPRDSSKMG
Put plainly: BLI, IgG1 on biosensor, soluble ROR ectodomain.
From the text: as §1, §2

For test [3], the target named is T3, ROR1 Ig-like domain (human, UniProt Q01973 42-147).
T3 construct: also called Acro Cat. No. RO1-H5221
T3 sequence (Q01973 42-147): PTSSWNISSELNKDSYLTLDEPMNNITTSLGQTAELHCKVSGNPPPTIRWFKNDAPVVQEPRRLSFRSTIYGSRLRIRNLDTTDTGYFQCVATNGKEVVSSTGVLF
Put plainly: BLI, IgG1 on biosensor, soluble ROR1 domain.
From the text: as §1, §2

T1 sequence (Q01973 30-406 limits assumed): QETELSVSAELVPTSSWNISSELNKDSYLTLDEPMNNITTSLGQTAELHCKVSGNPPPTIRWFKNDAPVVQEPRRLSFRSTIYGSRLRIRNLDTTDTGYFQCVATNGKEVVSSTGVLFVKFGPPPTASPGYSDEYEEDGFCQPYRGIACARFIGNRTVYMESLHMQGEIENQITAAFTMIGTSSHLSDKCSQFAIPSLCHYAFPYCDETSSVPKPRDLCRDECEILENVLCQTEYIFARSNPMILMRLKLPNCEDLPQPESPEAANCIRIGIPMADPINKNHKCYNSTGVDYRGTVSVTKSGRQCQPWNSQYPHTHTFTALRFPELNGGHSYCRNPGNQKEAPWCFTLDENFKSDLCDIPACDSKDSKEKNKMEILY

B1: I2C-24 IgG1 (antibody, V domains shown)
VH: EVQLVESGGGLVQPGGSLRLSCAASGFTFSRYYIHWVRQAPGKGLEWVADIDSYGGFTYYADSVKGRFTISADTSKNTAYLQMNSLRAEDTAVYYCARAHRFLQGGYVLDYWGQGTLVTVSS
VL: DIQMTQSPSSLSASVGDRVTITCRASQSVSSAVAWYQQKPGKAPKLLIYSASSLYSGVPSRFSGSRSGTDFTLTISSLQPEDFATYYCQQYSWGLWTFGQGTKVEIK
notes: human IgG1
Regarding B1, the binding result in test [1], in test [2] and in test [3] was “binds” each time.

B2: I2A-22 IgG1 (antibody, V domains shown)
VH: EVQLVESGGGLVQPGGSLRLSCAASGFTFSSYFIHWVRQAPGKGLEWVAAIYPSGWYTSYADSVKGRFTISADTSKNTAYLQMNSLRAEDTAVYYCARVQAGVFDYWGQGTLVTVSS
VL: DIQMTQSPSSLSASVGDRVTITCRASQSVSSAVAWYQQKPGKAPKLLIYSASSLYSGVPSRFSGSRSGTDFTLTISSLQPEDFATYYCQQYYYYPGTFGQGTKVEIK
notes: human IgG1
Turning to B2, the binding result in test [1], in test [2] and in test [3] was “binds” throughout.

B3: I2A-1 IgG1 (antibody, V domains shown)
VH: EVQLVESGGGLVQPGGSLRLSCAASGFTFSSYFIHWVRQAPGKGLEWVAAIYPEGGYTYYADSVKGRFTISADTSKNTAYLQMNSLRAEDTAVYYCARDYKYVGALDYWGQGTLVTVSS
VL: DIQMTQSPSSLSASVGDRVTITCRASQSVSSAVAWYQQKPGKAPKLLIYSASSLYSGVPSRFSGSRSGTDFTLTISSLQPEDFATYYCQQYYYFPGTFGQGTKVEIK
notes: human IgG1
As to B3, the binding result in test [1], in test [2] and in test [3] was “binds” in each case.

B4: I2C-8 IgG1 (antibody, V domains shown)
VH: EVQLVESGGGLVQPGGSLRLSCAASGFTFSGYFIHWVRQAPGKGLEWVAAIFPYRGGTSYADSVKGRFTISADTSKNTAYLQMNSLRAEDTAVYYCARGGVSPGGFDYWGQGTLVTVSS
VL: DIQMTQSPSSLSASVGDRVTITCRASQSVSSAVAWYQQKPGKAPKLLIYSASSLYSGVPSRFSGSRSGTDFTLTISSLQPEDFATYYCQQYYLYPGTFGQGTKVEIK
notes: human IgG1; same CDRs as I2A-16; also called 12C-8
Regarding B4, the binding result in test [1], in test [2] and in test [3] was “binds” each time.

B5: I2C-4 IgG1 (antibody, V domains shown)
VH: EVQLVESGGGLVQPGGSLRLSCAASGFTFWSYFIHWVRQAPGKGLEWVAYIHPSSSYTDYADSVKGRFTISADTSKNTAYLQMNSLRAEDTAVYYCARTSRDGAMDYWGQGTLVTVSS
VL: DIQMTQSPSSLSASVGDRVTITCRASQSVSSAVAWYQQKPGKAPKLLIYSASSLYSGVPSRFSGSRSGTDFTLTISSLQPEDFATYYCQQWYSPPETFGQGTKVEIK
notes: human IgG1
Turning to B5, the binding result in test [1], in test [2] and in test [3] was “binds” in each case.

B6: I2A-20 IgG1 (antibody, V domains shown)
VH: EVQLVESGGGLVQPGGSLRLSCAASGFTFSDYGIHWVRQAPGKGLEWVAEIDSWLGYTYYADSVKGRFTISADTSKNTAYLQMNSLRAEDTAVYYCARSPYHYLYYGLDYWGQGTLVTVSS
VL: DIQMTQSPSSLSASVGDRVTITCRASQSVSSAVAWYQQKPGKAPKLLIYSASSLYSGVPSRFSGSRSGTDFTLTISSLQPEDFATYYCQQLSSSLGTFGQGTKVEIK
notes: human IgG1
For the molecule B6, the results for the binding result in test [1], in test [2] and in test [3] were “binds”, “no binding” and “binds”, respectively.

B7: I2A-4 IgG1 (antibody, V domains shown)
VH: EVQLVESGGGLVQPGGSLRLSCAASGFTFYSYDIHWVRQAPGKGLEWVAYISPYWGITTYADSVKGRFTISADTSKNTAYLQMNSLRAEDTAVYYCARYIGSSYWDALDYWGQGTLVTVSS
VL: DIQMTQSPSSLSASVGDRVTITCRASQSVSSAVAWYQQKPGKAPKLLIYSASSLYSGVPSRFSGSRSGTDFTLTISSLQPEDFATYYCQQSDSSLVTFGQGTKVEIK
notes: human IgG1
As for B7, the values for the binding result in test [1], in test [2] and in test [3] were “binds”, “no binding” and “binds”, respectively.

B8: I2C-9 IgG1 (antibody, V domains shown)
VH: EVQLVESGGGLVQPGGSLRLSCAASGFTFTDYDIHWVRQAPGKGLEWVARIWPHGSYTFYADSVKGRFTISADTSKNTAYLQMNSLRAEDTAVYYCARSLTHSYGFDYWGQGTLVTVSS
VL: DIQMTQSPSSLSASVGDRVTITCRASQSVSSAVAWYQQKPGKAPKLLIYSASSLYSGVPSRFSGSRSGTDFTLTISSLQPEDFATYYCQQYYTWLITFGQGTKVEIK
notes: human IgG1
For the molecule B8, the binding result in test [1], in test [2] and in test [3] was “binds” throughout.

B9: I2A-3 IgG1 (antibody, V domains shown)
VH: EVQLVESGGGLVQPGGSLRLSCAASGFTFTSYEIHWVRQAPGKGLEWVAHIDPYGGYTQYADSVKGRFTISADTSKNTAYLQMNSLRAEDTAVYYCARRGVAVFDYWGQGTLVTVSS
VL: DIQMTQSPSSLSASVGDRVTITCRASQSVSSAVAWYQQKPGKAPKLLIYSASSLYSGVPSRFSGSRSGTDFTLTISSLQPEDFATYYCQQWAYAPVTFGQGTKVEIK
notes: human IgG1
As for B9, the results for the binding result in test [1], in test [2] and in test [3] were “binds”, “no binding” and “binds”, respectively.

B10: I2A-6 IgG1 (antibody, V domains shown)
VH: EVQLVESGGGLVQPGGSLRLSCAASGFTFSLYAIHWVRQAPGKGLEWVAEIDSWLGYTYYADSVKGRFTISADTSKNTAYLQMNSLRAEDTAVYYCARRPVTEVYYSALDYWGQGTLVTVSS
VL: DIQMTQSPSSLSASVGDRVTITCRASQSVSSAVAWYQQKPGKAPKLLIYSASSLYSGVPSRFSGSRSGTDFTLTISSLQPEDFATYYCQQYDRSLHTFGQGTKVEIK
notes: human IgG1
B10: the binding result in test [1] is on record as “binds”; in test [2], “no binding”; in test [3], “binds”.

B11: I2A-16 IgG1 (antibody, V domains shown)
VH: EVQLVESGGGLVQPGGSLRLSCAASGFTFSGYFIHWVRQAPGKGLEWVAAIFPYRGGTSYADSVKGRFTISADTSKNTAYLQMNSLRAEDTAVYYCARGGVSPGGFDYWGQGTLVTVSS
VL: DIQMTQSPSSLSASVGDRVTITCRASQSVSSAVAWYQQKPGKAPKLLIYSASSLYSGVPSRFSGSRSGTDFTLTISSLQPEDFATYYCQQYYLYPGTFGQGTKVEIK
notes: human IgG1
For B11, the binding result in test [1], in test [2] and in test [3] was “binds” in each case.

B12: I2A-14 IgG1 (antibody, V domains shown)
VH: EVQLVESGGGLVQPGGSLRLSCAASGFTFDSYVIHWVRQAPGKGLEWVAYIFSFGGYTYYADSVKGRFTISADTSKNTAYLQMNSLRAEDTAVYYCARSPYGTFALDYWGQGTLVTVSS
VL: DIQMTQSPSSLSASVGDRVTITCRASQSVSSAVAWYQQKPGKAPKLLIYSASSLYSGVPSRFSGSRSGTDFTLTISSLQPEDFATYYCQQYYYTPGTFGQGTKVEIK
notes: human IgG1
On to B12, for which the binding result in test [1], in test [2] and in test [3] was “binds” in each case.

B13: I2C-10 IgG1 (antibody, V domains shown)
VH: EVQLVESGGGLVQPGGSLRLSCAASGFTFSSYFIHWVRQAPGKGLEWVATIHSYFDGTSYADSVKGRFTISADTSKNTAYLQMNSLRAEDTAVYYCARTRPTGGAFDYWGQGTLVTVSS
VL: DIQMTQSPSSLSASVGDRVTITCRASQSVSSAVAWYQQKPGKAPKLLIYSASSLYSGVPSRFSGSRSGTDFTLTISSLQPEDFATYYCQQAYWSPATFGQGTKVEIK
notes: human IgG1
As to B13, the binding result in test [1], in test [2] and in test [3] was “binds” each time.

B14: I2C-11 IgG1 (antibody, V domains shown)
VH: EVQLVESGGGLVQPGGSLRLSCAASGFTFGSYFIHWVRQAPGKGLEWVAAIFPAGGYTYYADSVKGRFTISADTSKNTAYLQMNSLRAEDTAVYYCARYGSMGGAFDYWGQGTLVTVSS
VL: DIQMTQSPSSLSASVGDRVTITCRASQSVSSAVAWYQQKPGKAPKLLIYSASSLYSGVPSRFSGSRSGTDFTLTISSLQPEDFATYYCQQYYWFPGTFGQGTKVEIK
notes: human IgG1
As for B14, the binding result in test [1], in test [2] and in test [3] was “binds” in each case.

B15: I2C-1 IgG1 (antibody, V domains shown)
VH: EVQLVESGGGLVQPGGSLRLSCAASGFTFTSYGIHWVRQAPGKGLEWVAAIYPHSGFTSYADSVKGRFTISADTSKNTAYLQMNSLRAEDTAVYYCARTSYRGFDYWGQGTLVTVSS
VL: DIQMTQSPSSLSASVGDRVTITCRASQSVSSAVAWYQQKPGKAPKLLIYSASSLYSGVPSRFSGSRSGTDFTLTISSLQPEDFATYYCQQYYWYPGTFGQGTKVEIK
notes: human IgG1
Take B15: the binding result in test [1], in test [2] and in test [3] was “binds” throughout.

B16: I2C-2 IgG1 (antibody, V domains shown)
VH: EVQLVESGGGLVQPGGSLRLSCAASGFTFSDYFIHWVRQAPGKGLEWVAGIYPYSGYTKYADSVKGRFTISADTSKNTAYLQMNSLRAEDTAVYYCARDHSPVLDYWGQGTLVTVSS
VL: DIQMTQSPSSLSASVGDRVTITCRASQSVSSAVAWYQQKPGKAPKLLIYSASSLYSGVPSRFSGSRSGTDFTLTISSLQPEDFATYYCQQWYYWPGTFGQGTKVEIK
notes: human IgG1
Take B16: the binding result in test [1], in test [2] and in test [3] was “binds” in each case.
